B1: KLHL20 (parent)
chain: YQDMIYAVGGRDDTTELSSAERYN
B2: BTBD1 (parent)
chain: YGSIHGPTDYQVNIQIIEYEKKQT

Variants of: B1
Test: protein stability index of a GFP-peptide fusion (GPS, HEK-293T) (PSI 1-6); higher = more stable
Conditions: c terminus: a fixed tail appended
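Also: lentivirally expressed fusions sorted by FACS into six bins by GFP to DsRed ratio, PSI derived from sequencing read proportions per bin multiplied by bin number.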

Protein stability index of substitutions, site by site:
E21: D 2.29; A 2; H 2.04; F 2.28; P 2.55; V 2.09; N 1.89; L 1.95; S 1.92; Y 1.69; C 2.23; R 1.75; W 1.58; G 1.94; T 2.11; M 2.75; I 1.95; Q 1.95; K 2.37
A20: Y 1.78; W 1.66
R22: F 2.48; L 2.15; V 2.52; E 2.53; K 2.08; S 2.48; A 2.45; M 2.03; C 2.52; I 2.16; G 2.87; Y 2.63; P 2.69; N 1.92; H 2.38; W 2.56; D 2.49; T 2.18; Q 2.77
N24: T 1.85; V 1.75; Q 2.48; Y 2.31; A 1.75; F 2.41; E 2.66; W 1.93; G 2.99; D 3.62; R 2.7; L 2.69; M 2.08; H 2.44; C 2.02; K 2.16; I 2.02; S 2.24; P 2.42
Y23: G 2.18; M 2.29; P 2.72; T 2.37; W 3; H 2.64; E 2.77; D 2.98; V 2.93; L 2.25; R 2.77; I 1.93; S 2.54; K 2.74; N 2.59; F 2.13; A 1.82; C 2.32; Q 3.05

Variants of: B2
Test: as above
Conditions: c terminus: a fixed tail appended

Protein stability index: each site, then its substitutions
Q15: I 2.74; T 1.81; P 3.08; C 1.43; H 2.11; G 2.47; F 2.4; V 1.6; D 3.06; R 2.67; M 1.96; A 1.96; E 2.66
D9: C 1.94; E 1.95; P 2.44; S 1.65; K 1.82; A 3.12
N13: H 2.48; W 1.85; Q 2.69; A 2.4; K 2.57; C 1.7; F 1.39; R 2; I 1.83; S 2.15; T 1.82
I16: F 2.51; Q 3.9; Y 2.71; L 2.74; W 2.48; H 3.91; P 2.9; D 3.61; R 3.46; G 3.31; N 3.55
K21: F 3.75; C 1.96; W 2.8; D 2.46; M 2.02; Q 2.52; N 2.32; S 2.13; H 1.83; I 2.42
K22: Y 2.47; F 1.39; M 2.59; T 1.93; W 2.5; G 2.24; D 2.77; A 2.18; I 1.56; S 1.78; N 2.5; R 2.14
Y19: Q 3.29; T 2.92; V 2.44; L 2.54; E 4.05; M 3.03; I 2.39
Y1: T 3.83; L 2.94; V 3.84; Q 3.8; M 3.73; C 3.4; E 3.93; K 3.15; I 2.92
E20: V 1.84; F 1.84; C 1.66; W 2.15; I 2.22; Y 1.88; N 2.43; K 2.35; S 2; M 2.33
G6: K 3; R 2.88; C 2.81; W 2.71; N 3.4; M 2.85; D 3.61; S 3.15
H5: C 2.41; K 3.72; S 3.26; A 3.31; M 2.73; G 3.06; Q 2.78; F 1.99; Y 1.98; V 2.04; P 3.29; L 2.88
T8: K 2.16; F 2.17; S 3.11; I 2.06; V 2.06; C 2.25; H 2.38; R 2.57; L 1.91; N 2.94; A 2.71; P 2.97
E18: Q 2.1; V 3.19; H 1.84; F 3.79; W 3.17; R 1.85; G 2.24; L 3.33; M 2.44; Y 3.61
S3: C 2.06; E 3; G 2.88; I 2.24; F 2.64; R 2.88; W 2.17; D 3.13; V 2.57; T 3.08; L 2.94
V12: S 3.98; K 3.44; I 2.72; L 3.28; W 2.32; C 2.77; Q 4.19; D 4.04; P 2.95; T 3.72; R 3.66; H 4.09; Y 2.87; A 3.6
I17: T 3.47; A 3.32; G 3.31; H 3.22; S 3.31; L 2.68; R 2.87; V 2.68; K 3.53; C 2.62; P 3.44; Y 2.77
I4: L 2.94; W 2.5; F 2.21; H 2.79; R 1.93; E 3.45; A 2.95; S 2.45; N 2.93; P 3.1; D 4.08
T24: E 3.08; S 2.98; Y 2.21; P 2.3; L 2.03; D 3.18; C 2.16; V 2.43
G2: D 3.7; T 1.9; K 3.06; L 2.08; S 2.45; E 3.59; Y 2.03; M 2.83; Q 2.59; F 2.48; R 2.5; A 1.62; C 2.56; P 2.81
Y10: R 4.12; T 4.1; A 4.06; L 2.87; M 3.63; Q 4.33; C 2.96; V 2.77; G 3.79; N 4.48; P 4.31
Q11: V 1.42; T 1.55; R 2.32; S 2.34; G 2.57; Y 2.24; E 2.66; W 2.67; H 2.48; P 3.5; L 2.83; M 1.93
Q23: S 2.43; F 1.61; D 2.46; V 2.12; C 1.8; L 1.6; H 2.31; I 1.81
P7: R 1.75; F 2.47; G 2.87; I 2.44; N 2.84; C 2; V 2.63; Q 2.65; K 2.49; E 3.33; D 3.29
I14: S 3.08; N 3.98; A 3.47; W 2.76; Q 3.74; H 3.48; F 2.92; M 3.37; C 3.3; Y 3.35; L 3.36; V 3.16; E 3.46

Reference: the supplement of paper PMC10567573
